B1: IKKα/CHUK (protein)
chain: MERPPGLRPGAGGPWEMRERLGTGGFGNVSLYQHRELDLKIAIKSCRLELSSKNRERWCHEIQIMKKLDHANVVKACDVPEELNFLINDVPLLAMEYCSGGDLRKLLNKPENCCGLKESQILSLLSDIGSGIRYLHENKIIHRDLKPENIVLQDVGGKTIHKIIDLGYAKDVDQGSLCTSFVGTLQYLAPELFENKPYTATVDYWSFGTMVFECIAGYRPFLHHLQPFTWHEKIKKKDPKCIFACEEMTGEVRFSSHLPQPNSLCSLIVEPMESWLQLMLNWDPQQRGGPIDLTLKQPRCFALMDHILNLKIVHILNMTSAKIISFLLPCDESLHSLQSRIERETGINTGSQELLSETGISLDPRKPASQCVLDGVRGCDSYMVYLFDKSKTVYEGPFASRSLSDCVNYIVQDSKIQLPIIQLRKVWAEAVHYVSGLKEDYSRLFQGQRAAMLSLLRYNANLTKMKNTLISASQQLKAKLEFFRKSIQLDLERYSEQMTYGISSEKMLKAWKEMEEKAIHYSEVGVIGYLEDQIMSLHTEIMELQKSPYGRRQGDLMESLEQRAIDLYKQLKHRPPDHLYSDSTEMVKIIVHTVQSQDRVLKELFGHLSKLLGCKQKIIDLLPKVEVALSNIKEADNTVMFMQGKRQKEIWHLLKIACTQSSARSLVGSSLEGTVTPPVSAWLPPTLADREHPLTCVVTPQDGETLAQMIEENLNCLGHLSTIIREANEDQSSSLMSLDWSWLAE
B2: IKKα-ΔLH (protein)
chain: MERPPGLRPGAGGPWEMRERLGTGGFGNVSLYQHRELDLKIAIKSCRLELSSKNRERWCHEIQIMKKLDHANVVKACDVPEELNFLINDVPLLAMEYCSGGDLRKLLNKPENCCGLKESQILSLLSDIGSGIRYLHENKIIHRDLKPENIVLQDVGGKTIHKIIDLGYAKDVDQGSLCTSFVGTLQYLAPELFENKPYTATVDYWSFGTMVFECIAGYRPFLHHLQPFTWHEKIKKKDPKCIFACEEMTGEVRFSSHLPQPNSLCSLIVEPMESWLQLMLNWDPQQRGGPIDLTLKQPRCFALMDHILNLKIVHILNMTSAKIISFLLPCDESLHSLQSRIERETGINTGSQELLSETGISLDPRKPASQCVLDGVRGCDSYMVYLFDKSKTVYEGPFASRSLSDCVNYIVQDSKIQLPIIQLRKVWAEAVHYVSGLKEDYSRLFQGQRAAIFRKNVKSMERNGRKGHSLF
B3: IKKα-ΔCm (protein)
chain: MERPPGLRPGAGGPWEMRERLGTGGFGNVSLYQHRELDLKIAIKSCRLELSSKNRERWCHEIQIMKKLDHANVVKACDVPEELNFLINDVPLLAMEYCSGGDLRKLLNKPENCCGLKESQILSLLSDIGSGIRYLHENKIIHRDLKPENIVLQDVGGKTIHKIIDLGYAKDVDQGSLCTSFVGTLQYLAPELFENKPYTATVDYWSFGTMVFECIAGYRPFLHHLQPFTWHEKIKKKDPKCIFACEEMTGEVRFSSHLPQPNSLCSLIVEPMESWLQLMLNWDPQQRGGPIDLTLKQPRCFALMDHILNLKIVHILNMTSAKIISFLLPCDESLHSLQSRIERETGINTGSQELLSETGISLDPRKPASQCVLDGVRGCDSYMVYLFDKSKTVYEGPFASRSLSDCVNYIVQDSKIQLPIIQLRKVWAEAVHYVSGLKEDYSRLFQGQRAA

biological target: GST-IκBα (1-62)

Question: With B1 as the protein, how does the “immunoprecipitatable kinase activity towards GST-IκBα(1-62)” value read?
Answer: The value was “TNF-α stimulation of HEK293 cells transfected with each IKKα/CHUK isoform resulted in an increase in immunoprecipitatable kinase activity towards GST-IκBα(1-62)”.

Question: Which “immunoprecipitatable kinase activity towards GST-IκBα(1-62)” value does the source give for B2 here?
Answer: Its value is “TNF-α stimulation of HEK293 cells transfected with each IKKα/CHUK isoform resulted in an increase in immunoprecipitatable kinase activity towards GST-IκBα(1-62)”.

Question: Which “immunoprecipitatable kinase activity towards GST-IκBα(1-62)” value does the source give for B3 here?
Answer: The value was “TNF-α stimulation of HEK293 cells transfected with each IKKα/CHUK isoform resulted in an increase in immunoprecipitatable kinase activity towards GST-IκBα(1-62)”.

— US20030073111
